# Data: patent US20150259426A1 (Novartis, published 2015)
# T1: DcR2 extracellular domain (TNFRSF10D, Thr57-Thr198) (UniProt Q9UBN6 57-198)
# T1 construct: range 57-198; ECD cloned into pBadThioTopo; E. coli lysate on His capture plates
# T1 sequence (looked up): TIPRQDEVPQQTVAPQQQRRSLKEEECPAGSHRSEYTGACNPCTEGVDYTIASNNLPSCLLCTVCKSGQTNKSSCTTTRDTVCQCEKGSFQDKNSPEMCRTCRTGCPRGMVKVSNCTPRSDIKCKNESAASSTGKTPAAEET
# T2: hGITR (human, UniProt Q9Y5U5)
# T2 construct: extracellular domain, E. coli lysate captured on a His capture plate; Target named only on the sheet; the construct is not described in the text
# T2 sequence (extracellular domain, looked up): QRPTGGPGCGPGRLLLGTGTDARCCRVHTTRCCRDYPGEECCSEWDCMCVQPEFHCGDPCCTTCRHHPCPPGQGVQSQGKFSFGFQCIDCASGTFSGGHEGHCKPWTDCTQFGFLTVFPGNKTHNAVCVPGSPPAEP
# T3: OX40 extracellular domain (TNFRSF4, Gly33-Gly212) (UniProt P43489 33-212)
# T3 construct: ECD cloned into pBadThioTopo; E. coli lysate on His capture plates
# T3 sequence (looked up): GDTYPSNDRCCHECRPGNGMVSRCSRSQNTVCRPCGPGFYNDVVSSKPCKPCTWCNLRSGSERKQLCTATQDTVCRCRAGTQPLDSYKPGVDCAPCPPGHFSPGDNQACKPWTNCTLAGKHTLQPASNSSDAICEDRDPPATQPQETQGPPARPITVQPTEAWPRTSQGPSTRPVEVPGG
# T4: OPG (TNFRSF11B, Lys17-Ile197) (UniProt O00300 17-197)
# T4 construct: range 17-197; ECD cloned into pBadThioTopo; E. coli lysate on His capture plates
# T4 sequence (looked up): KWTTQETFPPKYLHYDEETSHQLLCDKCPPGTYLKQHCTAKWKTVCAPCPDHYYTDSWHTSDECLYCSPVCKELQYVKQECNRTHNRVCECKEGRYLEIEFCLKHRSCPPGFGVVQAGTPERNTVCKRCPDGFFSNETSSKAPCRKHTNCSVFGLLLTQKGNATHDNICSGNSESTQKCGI
# T5: FAS extracellular domain (TNFRSF6, Ser20-Gly175) (UniProt P25445 20-175)
# T5 construct: ECD cloned into pBadThioTopo; E. coli lysate on His capture plates
# T5 sequence (looked up): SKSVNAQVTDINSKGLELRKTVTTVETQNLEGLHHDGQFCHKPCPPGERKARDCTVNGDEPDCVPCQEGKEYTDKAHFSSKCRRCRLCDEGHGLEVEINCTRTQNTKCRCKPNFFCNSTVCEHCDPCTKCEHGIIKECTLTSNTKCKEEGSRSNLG
# T6: DcR3 (TNFRSF6B, Val27-Ala176) (UniProt O95407 27-176)
# T6 construct: range 27-176; ECD cloned into pBadThioTopo; E. coli lysate on His capture plates
# T6 sequence (looked up): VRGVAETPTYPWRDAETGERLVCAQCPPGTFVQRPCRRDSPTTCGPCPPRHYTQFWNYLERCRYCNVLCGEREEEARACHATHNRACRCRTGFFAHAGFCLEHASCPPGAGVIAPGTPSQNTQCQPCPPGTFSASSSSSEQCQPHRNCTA
# T7: TNFR1 extracellular domain (TNFRSF1A, Leu34-Thr211) (UniProt P19438 34-211)
# T7 construct: range 34-211; ECD cloned into pBadThioTopo; E. coli lysate on His capture plates
# T7 sequence (looked up): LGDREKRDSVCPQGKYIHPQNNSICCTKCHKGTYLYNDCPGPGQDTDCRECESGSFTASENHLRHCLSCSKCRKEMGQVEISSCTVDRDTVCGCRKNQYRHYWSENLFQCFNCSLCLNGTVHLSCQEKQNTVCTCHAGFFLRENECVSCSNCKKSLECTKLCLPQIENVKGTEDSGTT
# Tests used:
# [1] = biological target: T8, cell-bound human DR5 (Colo205 and other human cell lines) (human, UniProt O14763 56-440); test: cell-based or functional assay
# [2] = biological target: cynomolgus DR5-Fc fusion protein (cyno DR5 amino acids 56 to 213 fused with human IgG1 Fc) (cynomolgus; human); test: SPR (Biacore), CM5 chip coated with cynomolgus DR5-Fc, 1 to 100 nM NB construct
# [3] = biological target: T1, DcR2 extracellular domain (TNFRSF10D, …); test: ELISA, receptor ECD from E. coli lysate on His capture plate;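 note: binding specificity screen across TNF receptor superfamily ectodomains, anti-V5 detection as expression reference, primary antibody incubation 1 h at room temperature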
# [4] = biological target: T2, hGITR; test: as above
# [5] = biological target: T3, OX40 extracellular domain (TNFRSF4, …); test: as above
# [6] = biological target: T4, OPG (TNFRSF11B, Lys17-Ile197); test: as above
# [7] = biological target: T9, CD40 extracellular domain (TNFRSF5, Val18-Leu192) (UniProt P25942 18-192); test: as above
# T9 construct: range 18-192; ECD cloned into pBadThioTopo; E. coli lysate on His capture plates
# T9 sequence (P25942 18-192 limits assumed): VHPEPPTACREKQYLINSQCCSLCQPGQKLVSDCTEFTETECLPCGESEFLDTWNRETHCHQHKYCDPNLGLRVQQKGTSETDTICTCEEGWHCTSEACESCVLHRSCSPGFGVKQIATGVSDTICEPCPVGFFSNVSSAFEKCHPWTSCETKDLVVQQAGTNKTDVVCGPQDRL
# [8] = biological target: T10, TNFR3 extracellular domain (TNFRSF3, Pro30-Thr224) (UniProt P36941 30-224); test: as above
# T10 construct: range 30-224; ECD cloned into pBadThioTopo; E. coli lysate on His capture plates
# T10 sequence (P36941 30-224 limits assumed): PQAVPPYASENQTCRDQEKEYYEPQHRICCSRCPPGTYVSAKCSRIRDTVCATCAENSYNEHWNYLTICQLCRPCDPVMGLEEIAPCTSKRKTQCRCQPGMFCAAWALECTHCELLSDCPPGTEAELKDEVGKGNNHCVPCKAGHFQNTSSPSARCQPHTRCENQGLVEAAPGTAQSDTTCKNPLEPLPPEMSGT
# [9] = biological target: T11, BAFFR extracellular domain (TNFRSF13C, Met1-Gly64) (UniProt Q96RJ3 1-64); test: as above
# T11 construct: range 1-64; ECD cloned into pBadThioTopo; E. coli lysate on His capture plates
# T11 sequence (Q96RJ3 1-64 limits assumed): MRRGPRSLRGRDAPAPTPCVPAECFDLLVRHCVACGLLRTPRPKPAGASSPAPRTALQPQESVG
# [10] = biological target: T5, FAS extracellular domain (TNFRSF6, …); test: as above
# [11] = biological target: T12, CD137 extracellular domain (TNFRSF9, Glu19-Ile188) (UniProt Q07011 19-188); test: as above
# T12 construct: range 19-188; ECD cloned into pBadThioTopo; E. coli lysate on His capture plates
# T12 sequence (Q07011 19-188 limits assumed): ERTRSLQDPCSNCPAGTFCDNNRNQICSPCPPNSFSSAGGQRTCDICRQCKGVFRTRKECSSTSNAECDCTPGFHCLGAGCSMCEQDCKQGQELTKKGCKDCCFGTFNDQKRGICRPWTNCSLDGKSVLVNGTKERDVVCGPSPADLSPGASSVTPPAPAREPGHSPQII
# [12] = biological target: T6, DcR3 (TNFRSF6B, Val27-Ala176); test: as above
# [13] = biological target: T7, TNFR1 extracellular domain (TNFRSF1A, …); test: as above
# [14] = biological target: T13, CD27 extracellular domain (TNFRSF7, Thr21-Ser187) (UniProt P26842 21-187); test: as above
# T13 construct: range 21-187; ECD cloned into pBadThioTopo; E. coli lysate on His capture plates
# T13 sequence (P26842 21-187 limits assumed): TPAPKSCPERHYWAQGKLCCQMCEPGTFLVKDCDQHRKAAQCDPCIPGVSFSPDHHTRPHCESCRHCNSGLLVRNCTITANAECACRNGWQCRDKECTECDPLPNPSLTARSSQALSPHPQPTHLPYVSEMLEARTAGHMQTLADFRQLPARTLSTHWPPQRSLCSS
# [15] = biological target: T8, cell-bound human DR5 (Colo205 and other …); test: cell-based or functional assay; remark: listed apart in the source
Binder,"IC50, cell survival, Colo205 [1] [pM]",Kd [2] [nM],binding result [3],binding result [4],binding result [5],binding result [6],binding result [7],binding result [8],binding result [9],binding result [10],binding result [11],binding result [12],binding result [13],binding result [14],"IC50, cell survival, A549 [15] [nM]","IC50, cell survival, ARPE-19 [15] [nM]","IC50, cell survival, H226 [15] [pM]","IC50, cell survival, H2052 [15] [pM]","IC50, cell survival, H2122 [15] [pM]","IC50, cell survival, Huvec [15] [nM]",other results
"11D1 tri (trivalent anti-DR5 NB construct) (VHH, three VHH units in one chain joined by GlySer linkers; not shown: CMYC-HIS6 tag) EVQLVESGGGLVQPGGSLRLSCAASGSIDSINNMGWYRQAPGKQRELVAEITPRGRTNYADSEKSRFTISRDNAKRTVNLQMNSLKPEDTAVYYCNAEVRERGTSWYRPDYWGQGTQVTVSSGGGGSGGGGSGGGGSGGGGSGGGGSGGGGSGGGGSEVQLVESGGGLVQPGGSLRLSCAASGSIDSINNMGWYRQAPGKQRELVAEITPRGRTNYADSEKSRFTISRDNAKRTVNLQMNSLKPEDTAVYYCNAEVRERGTSWYRPDYWGQGTQVTVSSGGGGSGGGGSGGGGSGGGGSGGGGSGGGGSGGGGSEVQLVESGGGLVQPGGSLRLSCAASGSIDSINNMGWYRQAPGKQRELVAEITPRGRTNYADSEKSRFTISRDNAKRTVNLQMNSLKPEDTAVYYCNAEVRERGTSWYRPDYWGQGTQVTVSS",111,< 0.2,no binding (tested: not stated),no binding (tested: not stated),no binding (tested: not stated),no binding (tested: not stated),no binding (tested: not stated),no binding (tested: not stated),no binding (tested: not stated),no binding (tested: not stated),no binding (tested: not stated),no binding (tested: not stated),no binding (tested: not stated),no binding (tested: not stated),≥ 20,≥ 20,30,15,4,≥ 20,"IC50, cell survival, IMR-90 [15]: ≥ 20 nM; IC50, cell survival, Jurkat [15]: ≥ 20 nM; IC50, cell survival, M30 [15]: ≥ 20 nM; IC50, cell survival, MiaPaCa-2 [15]: ≥ 20 nM; IC50, cell survival, Molt4 [15]: ≥ 20 nM; IC50, cell survival, Panc-1 [15]: ≥ 20 nM"
"11H6 tri (trivalent anti-DR5 NB construct) (VHH, three VHH units in one chain joined by GlySer linkers; not shown: CMYC-HIS6 tag) EVQLVESGGGLVQPGGSLRLSCAASGTFDKINNMGWYRQAPGKQRDLVAQITPGGITDYADSVKGRFTISRDNAKDTMYLQMNSLKPEDTAVYFCNAEILKRAYIDVYVNYWGQGTQVTVSSGGGGSGGGGSGGGGSGGGGSGGGGSGGGGSGGGGSEVQLVESGGGLVQPGGSLRLSCAASGTFDKINNMGWYRQAPGKQRDLVAQITPGGITDYADSVKGRFTISRDNAKDTMYLQMNSLKPEDTAVYFCNAEILKRAYIDVYVNYWGQGTQVTVSSGGGGSGGGGSGGGGSGGGGSGGGGSGGGGSGGGGSEVQLVESGGGLVQPGGSLRLSCAASGTFDKINNMGWYRQAPGKQRDLVAQITPGGITDYADSVKGRFTISRDNAKDTMYLQMNSLKPEDTAVYFCNAEILKRAYIDVYVNYWGQGTQVTVSS",45.8,< 0.3,no binding (tested: not stated),no binding (tested: not stated),no binding (tested: not stated),no binding (tested: not stated),no binding (tested: not stated),no binding (tested: not stated),no binding (tested: not stated),no binding (tested: not stated),no binding (tested: not stated),no binding (tested: not stated),no binding (tested: not stated),no binding (tested: not stated),≥ 20,≥ 20,≥ 20000,360,12,≥ 20,"IC50, cell survival, IMR-90 [15]: ≥ 20 nM; IC50, cell survival, Jurkat [15]: ≥ 20 nM; IC50, cell survival, M30 [15]: ≥ 20 nM; IC50, cell survival, MiaPaCa-2 [15]: ≥ 20 nM; IC50, cell survival, Molt4 [15]: ≥ 20 nM; IC50, cell survival, Panc-1 [15]: ≥ 20 nM"
"7A12 tri (trivalent anti-DR5 NB construct) (VHH, three VHH units in one chain joined by GlySer linkers; not shown: CMYC-HIS6 tag) EVQLVESGGGLVQAGGSLRLSCAASGRTFSNYAMGWFRQAPGKEREFVAALNWSGGSTYYVDSVKGRFTISRDNAKNTVYLQMNSLKPEDTAVYYCAAAGSFSLGGRPYGDDYWGKGTLVTVSSGGGGSGGGGSGGGGSGGGGSGGGGSGGGGSGGGGSEVQLVESGGGLVQAGGSLRLSCAASGRTFSNYAMGWFRQAPGKEREFVAALNWSGGSTYYVDSVKGRFTISRDNAKNTVYLQMNSLKPEDTAVYYCAAAGSFSLGGRPYGDDYWGKGTLVTVSSGGGGSGGGGSGGGGSGGGGSGGGGSGGGGSGGGGSEVQLVESGGGLVQAGGSLRLSCAASGRTFSNYAMGWFRQAPGKEREFVAALNWSGGSTYYVDSVKGRFTISRDNAKNTVYLQMNSLKPEDTAVYYCAAAGSFSLGGRPYGDDYWGKGTLVTVSS",120,< 0.03,no binding (tested: not stated),no binding (tested: not stated),no binding (tested: not stated),no binding (tested: not stated),no binding (tested: not stated),no binding (tested: not stated),no binding (tested: not stated),no binding (tested: not stated),no binding (tested: not stated),no binding (tested: not stated),no binding (tested: not stated),no binding (tested: not stated),≥ 20,≥ 20,30,64,8,≥ 20,"IC50, cell survival, IMR-90 [15]: ≥ 20 nM; IC50, cell survival, Jurkat [15]: ≥ 20 nM; IC50, cell survival, M30 [15]: ≥ 20 nM; IC50, cell survival, MiaPaCa-2 [15]: ≥ 20 nM; IC50, cell survival, Molt4 [15]: ≥ 20 nM; IC50, cell survival, Panc-1 [15]: ≥ 20 nM"
